Measured values: patent US20060241067A1, “Methods For inhibiting angiogenesis, cell migration, cell adhesion, and cell survival” (priority 2002, published 2006)

Test system: Human umbilical vein endothelial cells (HUVEC)
Assay: Endothelial cell migration assay (transwell) on ECM substrates
Format: cell-based
Settings: inventors' data, no details given
Description: Human umbilical vein endothelial cells (HUVEC) were grown in Endothelial Growth Medium (containing 2% fetal bovine serum, bFGF and VEGF) (Clonetics, San Diego, Calif.). To render HUVECs quiescent for Rac and/or Rho assays, monolayers of endothelial cells were incubated for 18 hrs in Endothelial Basal Medium supplemented with 0.1% serum (Clonetics). Cell migration and adhesion assays on ECM substrates were performed as previously described in Kim et al. (S. Kim et al., Amer. J. Biol. Chem., 275:33920-33928 (2000); and S. Kim et al., Amer. J. Path., 156:1345-1362 (2000)).
Migration assays were performed essentially as described (Kim, et. al., 2000). […] HUVECS (25,000) were added to the upper chamber of inserts in migration buffer (Hepes buffered M199 medium containing 1% BSA, 2 mM MgCl2, 2 mM CaCl2 and 0.2 mM MnCl2) containing 25 μg/ml of various antibodies. In some experiments, 250 μM dibutyryl cAMP was placed in the upper and lower chambers of the transwell. Cells were allowed to migrate from the upper to the lower chamber for four hours at 37° C. The number of cells which had migrated were counted in three representative high power (200×) fields per insert. The data are presented as number of cells migrating+/−standard error of the mean. […] In this case, migrated transfected cells were identified by fluorescent microscopy and counted.

B1: Csk: enzyme that phosphorylates Src on Tyr 527 and inhibits its activity (protein, UniProt P41240 2-450, looked up)
Tyrosine-protein kinase CSK: SAIQAAWPSGTECIAKYNFHGTAEQDLPFCKGDVLTIVAVTKDPNWYKAKNKVGREGIIPANYVQKREGVKAGTKLSLMPWFHGKITREQAERLLYPPETGLFLVRESTNYPGDYTLCVSCDGKVEHYRIMYHASKLSIDEEVYFENLMQLVEHYTSDADGLCTRLIKPKVMEGTVAAQDEFYRSGWALNMKELKLLQTIGKGEFGDVMLGDYRGNKVAVKCIKNDATAQAFLAEASVMTQLRHSNLVQLLGVIVEEKGGLYIVTEYMAKGSLVDYLRSRGRSVLGGDCLLKFSLDVCEAMEYLEGNNFVHRDLAARNVLVSEDNVAKVSDFGLTKEASSTQDTGKLPVKWTAPEALREKKFSTKSDVWSFGILLWEIYSFGRVPYPRIPLKDVVPRVEKGYKMDAPDGCPPAVYEVMKNCWHLDAAMRPSFLQLREQLEHIKTHELHL
In the case of B1, the cell migration is reported as “causes inhibition of cell migration”.
